Series [1] has as its target T1, DndI (Salmonella enterica, UniProt E2D680). Also noted: gene A6E75_01280. To be noted: r3.1 buffer, 10 mM MgCl2, pH 7.9, 37 °C; without or with phosphorothioate pUC19 DNA.
Series [2] deals with T1, DndI. Put plainly: nucleoside triphosphatase assay. It counts as biochemical. Also noted: gene A6E75_01280; full length (residues 1-596); homodimer in crystal; 1,788 bp dndI fragment cloned for FRET construct, but ORF printed elsewhere as 1,971 bp. To be noted: r3.1 buffer, 10 mM MgCl2, pH 7.9, 37 °C; without or with phosphorothioate pUC19 DNA buffer presumed.
A further series has as its target T2, DndI CTD (Salmonella enterica serovar Cerro 87, UniProt E2D680 239-596).
T2 sequence: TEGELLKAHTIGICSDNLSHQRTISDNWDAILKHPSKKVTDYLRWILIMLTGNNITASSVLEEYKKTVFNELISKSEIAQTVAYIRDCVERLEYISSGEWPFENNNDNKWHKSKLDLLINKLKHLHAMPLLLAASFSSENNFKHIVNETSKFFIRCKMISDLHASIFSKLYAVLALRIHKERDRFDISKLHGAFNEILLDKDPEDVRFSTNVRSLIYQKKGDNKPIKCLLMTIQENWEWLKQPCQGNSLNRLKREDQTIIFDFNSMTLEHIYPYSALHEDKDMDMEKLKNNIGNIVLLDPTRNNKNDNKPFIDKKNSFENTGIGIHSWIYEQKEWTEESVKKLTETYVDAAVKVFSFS
Description: EMSA; EMSA: 100 nM 70 bp DNA, 10 uL, NEB r3.1 buffer (composition and pH not given), 4 C, 1 h, 6% polyacrylamide gel. To be noted: protein: recombinant; tags: His (pET28a); blunt. In general terms: In EMSA bound probe runs differently from free probe, usually more slowly.

The target of series [3] is T3, DndI (Salmonella enterica serovar Cerro 87, UniProt E2D680 1-596).
T3 sequence: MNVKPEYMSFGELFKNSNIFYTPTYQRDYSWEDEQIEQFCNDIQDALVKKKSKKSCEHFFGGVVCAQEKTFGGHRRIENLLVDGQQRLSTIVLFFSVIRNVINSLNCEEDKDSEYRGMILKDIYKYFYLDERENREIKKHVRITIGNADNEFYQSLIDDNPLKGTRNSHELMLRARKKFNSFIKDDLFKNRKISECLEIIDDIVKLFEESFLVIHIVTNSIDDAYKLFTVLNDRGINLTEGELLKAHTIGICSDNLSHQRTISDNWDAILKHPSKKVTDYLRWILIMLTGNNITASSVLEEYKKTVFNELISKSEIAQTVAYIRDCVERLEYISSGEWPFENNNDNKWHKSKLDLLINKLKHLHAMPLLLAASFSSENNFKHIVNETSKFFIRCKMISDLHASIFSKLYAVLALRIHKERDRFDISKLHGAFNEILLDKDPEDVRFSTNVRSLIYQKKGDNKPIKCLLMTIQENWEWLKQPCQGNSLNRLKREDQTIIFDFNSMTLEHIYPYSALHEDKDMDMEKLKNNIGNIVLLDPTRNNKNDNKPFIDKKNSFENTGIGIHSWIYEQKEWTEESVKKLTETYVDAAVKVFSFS
The description is as above. To be noted: protein: recombinant; tags: His (pET28a); chain copies: 2; blunt.

In another series the target is DndI R87A (Salmonella enterica serovar Cerro 87, UniProt E2D680 1-596, R87A). Put plainly: EMSA. To be noted: protein: recombinant; tags: His (pET28a); blunt.

On to `Nc1ncnc2c1ncn2[C@@H]1O[C@H](COP(=O)(O)OP(=O)(O)OP(=O)(O)O)[C@@H](O)[C@H]1O` [ATP], for which the “malachite green phosphate release” value at DndI [1] was “DndI exhibited an intrinsic ATPase activity”.

As to `Nc1nc2c(ncn2[C@@H]2O[C@H](COP(=O)(O)OP(=O)(O)OP(=O)(O)O)[C@@H](O)[C@H]2O)c(=O)[nH]1` [GTP], the nucleoside triphosphatase assay entry on DndI [2] is “DndI demonstrated weak hydrolytic capabilities with regard to GTP, CTP and UTP”.

B1: 70 bp GAAC/GTTC EMSA DNA (PT-free) (dsDNA)
DNA 1: GCTGCAACAGGATGCCAATAAGACCAAAAAAACCAGCCAGCAAGCAGAGAACGACGAGAGCTGGCAATCT
DNA 2: AGATTGCCAGCTCTCGTCGTTCTCTGCTTGCTGGCTGGTTTTTTTGGTCTTATTGGCATCCTGTTGCAGC
Take B1: the results for the Kd with DndI CTD, with DndI [3] and with DndI R87A were 0.66 µM, 9.31 µM and 3.3 µM, respectively.
